According to the domain aggregation screens of Martell et al. (2025):

Experiment: soluble fraction after stress (log2 fold change); higher = more stays soluble; pooled small domains, quantitative proteomics
Conditions: stress: 75 degC
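Further: 20 min heating vs room temperature control held 20 min.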

Sequence | soluble fraction (log2)
HMQLNNTDELEKIILKILENNPKQVDQFLAGKQKLLGFFVGQAMRATSGKANPKTVNDLLEKFLSK | 0.027
HMQLPDLDEIRQMRKRLDLSQRELAALAGVSQSLIAKIEKGSIDPSYDNVRKIFNAFENILKKRALE | -0.119
HMQLPIGDVKLSVEHLSSGTALQDISFEVHRGEIFGFLGLVGAGRSETAETIFGLREKTDGKISIDGTVL | -0.0579
HMQLPTNAAAILRYLSSGAVKGVGSATAVRIVEKFGEETLNILEQDPLRLAEIRGISRDKAKKIGEDFASQ | -0.322
HMQLSMLPYGFARRHGVLLVEQDEQPTLIHRAGITATVIAEVQRVAGQIDAWRLVDDARFDQQLAEVYRD | -1.33
HMQLTPAQHAILAYAIEHTGGKIEWFPDNIKGGARTKVLEGLFNKALITRDSTDWFVAAEGYDALGR | -0.949
HMQLYSLEVLSKKKVDLIENNKNLINLYFNKENGEYSYRLIFKNRKELYQVKDTLDNSSDVVSIKLDL | -2.27
HMQMGLNEAYRVLHVSPDAPWREVQSAYKERMAKSHPDKVSHLGEELQEKAKELTVEINKAYNTIKRYKK | 0.47
HMQMKDRILRIMEHEGISPSKFAEEIGIQRSAMSHIISGRNNPSLDVLTKIMQRFTYVDTDWLLFGKGSMV | -1.99
HMQMPDLTGKPRAEAVTTLAALGFTDVKFLDASAGDEPLDYVADQVVRTSPEAGAALASGQQITIYLAT | -0.203
HMQMSDTSMIRDLVLQVLAENPQSIEDFKNGKDRAVGFLVGMVMKKSQGKANPQITNQMIVEELKK | -0.228
HMQMSERENTILLTKRYIERGEYERAMNLLDSLLIKNALDEEALAMIDEIIALKAGASLQDFPRY | -0.797
HMQMTTPQMVPLFTDLSVDDSASIIKDLERQAVPYQIKSDGAIIMVPKDKVTRLRMKLAESGLPK | 0.488
HMQNDDLTKLDGIGPYIEQRLNDIGIYNYEQLSKLNTEDIQKITELIDFFPGRIERDNWVSQAQLLKI | -0.515
HMQNDILIQADEIVGDYFDMDKEALKMNKQAVIADIEKRQATAQGDEASALHYAKQKVENEFEDDGSQKD | 0.109
HMQNKFLDIVGEIEVKAVDYYLLKDTSGLVIKFPKNLVFANGLKIADNKIGLTVSLYGAWVHEET | -1.08
HMQNKYIIKQGNSGELVEVLQELLNLKQDGVFGPQTKKAVIAFQQKHKLVADGIVGPMSWRKLNFNPEELF | -2.36
HMQNLISSDEAKNIALQHANLTDNQVTFIKVSKDYDDGIHIYEVEFHYNNREYNYDINAINGTILSYEQ | -1.34
HMQNNKITIYISGAVNRPGIVTIESDKRLYDAVELLGGTTKEADLNGVNLSVRLEDEQHYIIPKIGEA | -0.432
HMQNNWFYEENGQRKGPVSENEMVQFIKSSVISHGTSVWKQGFPDWLKVENTDLRVHLDNSAP | 0.105
HMQNREQNILDGKSILDKELKRVGLLNQSAAIMAQEMKFNSQDDLFAALGSGATRIGQIINHLQKQS | -0.00272
HMQNSMTTTPDVVGKTGTFAEQMLKAANLNVQFAGDSSGKVVAQDVEAGTSAAYGTIITLTMDS | 0.693
HMQNVKIKAEVKGEVISPGVYELDEESRIQDLIDASGGFSDKAYYDNINLSMKLKDEMVLVVYDKDKI | -0.271
HMQPADYSDLYAAAKSAGEADMRAAFALTDKQERTAAVNAARETIKAALSEEQLADANLGSALKKLEAGV | -0.122
HMQPASPELNNQEKKVLQALPENEVIHIDELSDKIQIPVGELLTVLLSLEMKETVIQEPGKFFRRR | -1.29
HMQPDFLDAKASLALLGVRPQTLYAYVSRGAIRSVPQPGTKAHLYSRSDIERVMARAAARAG | -1.34

Sequence | soluble fraction (log2)
HMQPDYRVLYSNFSDKDGGAIVAALEKMNVPYKFSEGGSAILVPAGQVHQARLKLAADGLPK | 0.0648
HMQPLGHDLTERELDVLALMVTGMNNSEIADKLVVSRSTIKYHVSNILSKLQATSRTEAVAYALQQNLVH | -2.51
HMQPQIDFEIDVEVRASSLRIVAAPNSDVLVATVGRGEHVVQLTYPKDGWVMIRTADDRVGFVPESLLL | -2
HMQPQYSVLFSNIEEKDGGSIITLLQQGNVPYKVENGGTTILVPANRANELRLTLAAQGLPK | 0.449
HMQPVLSDAEVNDLKNIAGGERGYNQLMDWAGNNLTAQDAKSYDDVLATGNKAAISFAIKALMGQYEDAN | -0.0478
HMQQEAVNLVQSRGQQAIEPVHIMQGVMKVGENVTNFIFQKLGMNGQQVALVVDKQIDSLPKVSGGEPYL | 0.124
HMQQEAVSGKLLQLDLAKKEGRLSTDLGREVLFHIPKPELFVHLSVGQRIIIKLDAGQEAVGV | -0.178
HMQQELDAFKLLITVSGVGPKAAMAVLSVLPPDRLSIAVSSGDVKSIQSAQGVGKKTAERIVLELKDKM | -0.906
HMQQIEIEEPITVKNLSAVAGLKASEIIAKLMKLGVMSTINQVMERQHAEEIAGEYGFELVVK | -0.132
HMQQISDPQVLRPMAEEVLHQSQKVVQDYKGGNKNAFHALVGQMMKKTQGKGNPQVIGQVLSELLDE | 0.98
HMQQKNWIVRDGDGKIYGPFTTEQVLVQIDRGYFVGGEEVALYPGGRWIAISGAPEFYDRLLDALAMEG | -0.995
HMQQQLLHIVFGGELKDVTGIEFEDLSKMDFVGAFSNYKDAYDAWKSAAQRTVDHAEMRYFILHAHKLL | -6.11
HMQQRTVEHVDTAVEALALSIGERAGVDLPYMAHLTGKTQEDLIEDLTGVIFPVPGTEPLRYVTADDYLS | 0.181
HMQQSVSSLVRRYMLQTIPGINFSLKSTALALNMSDRTLQRKLLSENTSYQIILDDVRKELAIKYLKE | -3.23
HMQQVIQSGQKVQLMATDGSFQVSAEGVALKNGSVGEVIGVRMPSGRVISGVVSASGAVEVR | 0.125
HMQQVLGDVNEDDKVDFLDAIVVLRHDAEIIQLTDNQMKAAEVNKDGKVDFLDAIMILRYDAEIIGS | -0.0321
HMQRDDMQIDRLIQIVFLLLSRNNLTAKQLAEELGVSTRTIYRDINILSVAGIPITSQKGYGGGLSLLQG | -0.608
HMQRDELRYDQFLTALQNKEFTQLNVRFDDYTYLVTGTFQSGRPFSTRGPVSEEFIRLIESSGVQVTWLPM | -1.65
HMQRDERYVYHTVLAGETIYSLSRKFNVTMDELLESNPALRSGVLTTGSEIRVLKAQMAQNFD | -1.25
HMQRQGTVATQQTPLNIRSQPSLSAQVIGQAPKGATVAILGESGDWYQIRYQNITGYSSKQYI | 0.0804
HMQRSVEDVFVQLRNGMDTYDMTQIEDALRILHGMELSTAQRDLLDKVQEAYNDLEYETGAALLAGFERIK | 0.134
HMQRYFINEPVPEDQRLVLPKDIAHHLVDVLRAEQNDELEVALNDQKVYLARLISLNPATVELQSDLG | 0.465
HMQRYFLEEAYQPSEKFELSAEAFHHIVHVMRMKPKDRVYLAFSDQQVIIAEITEITEEKVYLTEIEKEE | -3.23
HMQRYYDVLGLQKGVSPEELKKTYRELSKKYHPDAHHNSPLRDLAEAKFKEINEAYEKIKEFLDNNF | -0.207
HMQSAKLSYSDFMQKVNAGDVVSVKIQGPKISGVTTGGGKFMTYAPEDPTLVSTLMQKKVEVMAEP | 0.139
HMQSAMALTKDLIEQQGKYYHRGQPFTGVGFAKNKKGKFVTEEPFKNGLLHGKRVNYDHNGHVLAREK | -0.105

Sequence | soluble fraction (log2)
HMQSEESTHIGERMLNQALRAMHVEPSAVKEKQWEKLIRDYSVKNKQDILTDIGLGKRQSVMVAHQLLAI | -0.165
HMQSEISRIGRILKERRLQLGYTQEYAAEKAGISYSYYTKIERGQQLPSLEVAMVLSKTFSLSMDRWL | -4.78
HMQSFIEELLPVVDNFERSLAVVDPSDEIKNFLKGYEMIYNQLMEVLKSQGVEVIKTEGEEFDPNFHQA | -0.121
HMQSHIVPDVKSQHIAQAKALLESKQMKAVVIDSNFVKGLPAGIVLDQTPIGGARVKENRTIYLTINTL | -1.56
HMQSMEIDENEIPSIDKLSEYIEYFKRIYNALFDDKQLAITNIDVLERHFANNFNTLRFKMDE | 0.169
HMQSNDAGELEAVVKGIIDANPKVVADYLAGNQKVVSFFVGQAMKATKGKANPKMVSEILGKLL | -0.0975
HMQSQIAQLYNPLLGYVKKRINSREDAEDLTQDIFLKLSKSNKDGVDNLKSWLYTIAKNTITDYYRKKKII | -0.0844
HMQSREISYSDFVASVERGEVATVILDGENIRFKGGDNVEYVTVRPADTNVTDLLIENQVVVRAEK | 0.231
HMQSTVSTHQKTLALDTAQSGIPVFPVSSTHKRPLTDHGYKDATADADAVRKIWQQFPSAFV | 0.28
HMQSVKTQPLRDWLLAHFDKPYPDDEDKVRLAEASGMTRAQVGNWFINARVRTWRPMVLDLGEEIERESV | -0.325
HMQTEFVISSGEQPKRLDVFLLQREPYLSRAALQRMIAAGWVRVNNHLAKSSQRIKAGDVIVFD | -1.42
HMQTFGTMIAALRKEQGMTQLELAEKMGVTDKAVSKWERDLSFPDVNSLPKLAEIFHVSVDEL | -0.16
HMQTLGADLRALRKARGLTLTDMAETLGRSVGWLSQVERDLSEPSITDLRHMARTLGVSVSMLFS | -1.52
HMQTLQNNLKQIRSRVGLTQGELASRAGISRQAYSTLESGNANPSTEVSLRLAEALNERIESLFFLANQ | -0.495
HMQTSETVYTTDKVNVRAGADTSSDKLGSVEKGTSLTRTGTDGDWSIIDYNGTTGYIKSEYLSATAPE | 0.566
HMQTTKTGTITASSLYVRSGASTSHKVLGTVSKGKTVQIKDTQDGWHKISYNGDHGWVSGKYVSTT | 0.226
HMQTTVHLSPEEMVIMNALKQESPIDLPILRAQVEMSNKLWDTSMKNLSKLGQLKVEKIGEQVSVSLI | -0.582
HMQVAPDLMQRLTSQGHVDEKLSDALVHARQITNFEGRRRQMQFIGKLMRKLSEESIEAVKDALNEQRM | -0.313
HMQVDENNINKRIDKYLSENTEYSRSTIQKMIDNGNITVNSKPTKSSYKLELNDIITIDNNFKE | 0.0359
HMQVEYTRGELIQDLEGGKIVYAGISPSRETPTGEVNFILDSGLTRTLYVTDVSEIEQLLISYDIDPEVKK | -0.0196
HMQVFDSNEIDEVVKKVIENNPQAVADFKKGKSNALQFLAGQVMRETKGRFNPNVVQERIRLLLT | 0.671
HMQVLLTRREKEILKLIAEGLTSAEIGKRLFISTTTVDTHRKHLLEKLKAGNTAILIKTAVQLDLI | -2.53
HMQVPWYQRLKEKRLEYGVSQNKLATHIGISRQYMSEIETGKVTPSDSLQATLFDILEQFNPDA | -0.817
HMQVRVERSRDKVVISGVNYYIHPVRKGETVYSIARAYGITTQDLVRENPSAAEGLKEGQSIRIPERLVD | -0.438
HMQVSDEGPIKAILQEVLDKSPTQLADYASGKVKLRQYFFGEAMKALKGKANPQVINKLLDEMLPPVAA | -0.0324
